Measurements published in patent EP3409295A1 (priority 2016, dated 2017).
Like-named read-outs stand apart in the source and are kept apart here.

Assays:
[1] = in vivo; details: female, SD, rat, iv, 5 mg/kg
[2] = SD rats; for F: oral 50 mg/kg versus intravenous 10 mg/kg
[3] = tested on: ICR mice; details: mouse, in vivo, iv
[4] = tested on: ICR mice; details: mouse, in vivo, iv; remark: listed apart in the source
[5] = tested on: rats; details: rat, in vivo
[6] = tested on: ICR mice; assay: Tail flick test (heat radiation pain tester); type: in vivo; details: tail vein, morphine 5 mg/kg, other doses as in the writhing test
[7] = intravenous administration, 10 mg/kg

Row | SMILES | level at 10 min [1] | level at 1 h [1] | level at 3 h [1] | tissue level at time at 10 min [1] | tissue level at time at 1 h [1] | tissue level at time at 3 h [1] | AUCINF [2, 7] | AUClast [2, 7] | CL [2, 7] | MRTINF [2, 7] | T1/2 [2, 7] | Vss [2, 7] | Vz [2, 7] | F [2] | AUCINF ([2]; oral administration, 50 mg/kg) | AUClast ([2]; oral administration, 50 mg/kg) | Cmax ([2]; oral administration, 50 mg/kg) | T1/2 ([2]; oral administration, 50 mg/kg) | Tmax ([2]; oral administration, 50 mg/kg) | other results
1 | CN1CC[C@]23c4c5ccc(O)c4O[C@H]2[C@@H](OCCOCCOCCOCCOCCOCCOCCOCCOCCO[C@H]2C=C[C@H]4[C@H]6Cc7ccc(O)c8c7[C@@]4(CCN6C)[C@H]2O8)C=C[C@H]3[C@H]1C5 [α-6-O-PEG9-(morphine)2] | 1230 ng/mL | 201 ng/mL | 101 ng/mL | 152 ng/g | 125 ng/g | 123 ng/g | 259 ng·h/mL | 221 ng·h/mL | 166 mL/min/k g | 7.91 h | 8.33 h | 60.1 L/kg | 92 L/kg | 5.2% | 17 ng·h/mL | 11 ng·h/mL | 11 | 11.5 h | 3.0 h | 
2 | CN1CC[C@]23c4c5ccc(O)c4O[C@H]2[C@@H](OCCOCCOCCOCCO[C@H]2C=C[C@H]4[C@H]6Cc7ccc(O)c8c7[C@@]4(CCN6C)[C@H]2O8)C=C[C@H]3[C@H]1C5 [α-6-O-PEG4-(morphine)2] | 1120 ng/mL | 114 ng/mL | 42 ng/mL | 226 ng/g | 198 ng/g | 164 ng/g | 137 ng·h/mL | 122 ng·h/mL | 238 mL/min/k g | 6.12 h | 4.71 h | 64.3 L/kg | 94.3 L/kg | 17.1% | 81 ng·h/mL | 70 ng·h/mL | 47 | 6.4 h | 3 h | Number of Writhing ([3]; 10 mg/kg): 20.1±2.3
3 | COc1ccc2c3c1O[C@H]1[C@@H](OCCOCCOCCOCCO[C@H]4C=C[C@H]5[C@H]6Cc7ccc(OC)c8c7[C@@]5(CCN6C)[C@H]4O8)C=C[C@H]4[C@@H](C2)N(C)CC[C@@]341 [α-6-O-PEG4-(codeine)2] | 1660 ng/mL | 233 ng/mL | 43 ng/mL | 121 ng/g | 110 ng/g | 107 ng/g |  |  |  |  |  |  |  |  |  |  |  |  |  | Number of Writhing ([3]; 30 mg/kg): 31.3±4.1
4 | CN1CC[C@]23c4c5ccc(O)c4O[C@H]2[C@@H](OCCOCCO[C@H]2C=C[C@H]4[C@H]6Cc7ccc(O)c8c7[C@@]4(CCN6C)[C@H]2O8)C=C[C@H]3[C@H]1C5 [α-6-O-PEG2-(morphine)2] | 1210 ng/mL | 123 ng/mL | 43 ng/mL | 554 ng/g | 342 ng/g | 221 ng/g | 107 ng·h/mL | 90 ng·h/mL | 307 mL/min/k g | 2.08 h | 2.88 h | 37.2 L/kg | 52.1 L/kg | 4.8% | 35 ng·h/mL | 27 ng·h/mL | 18 | 4.0 h | 2 h | 
5 | COc1ccc2c3c1O[C@H]1C(=O)CC[C@@]4(O)[C@@H](C2)N(C)CC[C@]314 [Oxycodone, oxycodone] |  |  |  |  |  |  |  |  |  |  |  |  |  |  |  |  |  |  |  | Number of Writhing ([4]; 5 mg/kg): 9.9±3.2
6 | COCCOCCOCCOCCOCCOCCO[C@H]1C=C[C@H]2[C@H]3Cc4ccc(O)c5c4[C@@]2(CCN3C)[C@H]1O5 [α-6-O-mPEG6-morphine, reference compound] |  |  |  |  |  |  |  |  |  |  |  |  |  |  |  |  |  |  |  | Number of Writhing ([3]; 10 mg/kg): 15.3±3.4
7 | COCCOCCOCCOCCO[C@H]1C=C[C@H]2[C@H]3Cc4ccc(O)c5c4[C@@]2(CCN3C)[C@H]1O5 [α-6-O-mPEG4-morphine, reference compound] |  |  |  |  |  |  |  |  |  |  |  |  |  |  |  |  |  |  |  | Number of Writhing ([3]; 10 mg/kg): 12.1±2.3
8 | CN1CC[C@]23c4c5ccc(O)c4O[C@H]2[C@@H](OCCOCCOCCOCCOCCO[C@H]2C=C[C@H]4[C@H]6Cc7ccc(O)c8c7[C@@]4(CCN6C)[C@H]2O8)C=C[C@H]3[C@H]1C5 [α-6-O-PEG5-(morphine)2] | 926 ng/mL | 101 ng/mL | 51 ng/mL | 125 ng/g | 123 ng/g | 95 ng/g | 128 ng·h/mL | 109 ng·h/mL | 261 mL/min/k g | 3.52 h | 3.71 h | 55.2 L/kg | 84 L/kg | 28.2% | 156 ng·h/mL | 129 ng·h/mL | 75 | 7.8 h | 2.0 h | 
9 | CN1CC[C@]23c4c5ccc(O)c4O[C@H]2[C@@H](OCCOCCOCCOCCOCCOCCOCCOCCO[C@H]2C=C[C@H]4[C@H]6Cc7ccc(O)c8c7[C@@]4(CCN6C)[C@H]2O8)C=C[C@H]3[C@H]1C5 [α-6-O-PEG8-(morphine)2] | 1230 ng/mL | 167 ng/mL | 90 ng/mL | 140 ng/g | 153 ng/g | 127 ng/g | 188 ng·h/mL | 162 ng·h/mL | 221 mL/min/k g | 10.8 h | 6.83 h | 84.7 L/kg | 125.2 L/kg | 7.6% | 31 ng·h/mL | 22 ng·h/mL | 22 | 5.2 h | 3 h | 
10 | CN1CC[C@]23c4c5ccc(O)c4O[C@H]2[C@@H](OCCOCCOCCO[C@H]2C=C[C@H]4[C@H]6Cc7ccc(O)c8c7[C@@]4(CCN6C)[C@H]2O8)C=C[C@H]3[C@H]1C5 [α-6-O-PEG3-(morphine)2] | 1020 ng/mL | 119 ng/mL | 32 ng/mL | 387 ng/g | 262 ng/g | 167 ng/g | 112 ng·h/mL | 104 ng·h/mL | 296 mL/min/k g | 2.18 h | 2.31 h | 27.8 L/kg | 43 L/kg | 3.2% | 18 ng·h/mL | 15 ng·h/mL | 12 | 5.1 h | 2 h | 
11 | COc1ccc2c3c1O[C@H]1[C@@H](OCCOCCOCCOCCOCCOCCO[C@H]4C=C[C@H]5[C@H]6Cc7ccc(OC)c8c7[C@@]5(CCN6C)[C@H]4O8)C=C[C@H]4[C@@H](C2)N(C)CC[C@@]341 [α-6-O-PEG6-(codeine)2] | 1740 ng/mL | 445 ng/mL | 67 ng/mL | 102 ng/g | 100 ng/g | 97 ng/g |  |  |  |  |  |  |  |  |  |  |  |  |  | Number of Writhing ([3]; 30 mg/kg): 34.1±3.3
12 | CN1CC[C@]23c4c5ccc(O)c4O[C@H]2[C@@H](OCCOCCOCCOCCOCCOCCO[C@H]2C=C[C@H]4[C@H]6Cc7ccc(O)c8c7[C@@]4(CCN6C)[C@H]2O8)C=C[C@H]3[C@H]1C5 [α-6-O-PEG6-(morphine)2] | 1200 ng/mL | 123 ng/mL | 72 ng/mL | 163 ng/g | 133 ng/g | 111 ng/g | 158 ng·h/mL | 144 ng·h/mL | 204 mL/min/k g | 3.22 h | 3.42 h | 38.6 L/kg | 57.7 L/kg | 21.2% | 84 ng·h/mL | 73 ng·h/mL | 54 | 4.8 h | 3 h | Number of Writhing ([3]; 10 mg/kg): 24.3±3.4
13 | COc1ccc2c3c1O[C@H]1[C@@H](O)C=C[C@H]4[C@@H](C2)N(C)CC[C@@]341 [Codeine, codeine] |  |  |  |  |  |  |  |  |  |  |  |  |  |  |  |  |  |  |  | Number of Writhing ([4]; 30 mg/kg): 13.4±3.1
14 | CN1CC[C@]23c4c5ccc(O)c4O[C@H]2[C@@H](O)C=C[C@H]3[C@H]1C5 [Morphine, morphine] |  |  |  |  |  |  |  |  |  |  |  |  |  |  |  |  |  |  |  | Nose-pokes [5]: 24.0±2.2; Number of Writhing ([4]; 5 mg/kg): 10.2±2.1; Heat pain value ([6]; 0 hr (base value before administration)): 14.0 ± 2.2 s; Heat pain value ([6]; 0.25 hr after administration): 22.7 ± 5.1 s; Heat pain value ([6]; 1hr after administration): 42.4 ± 5.1 s; Heat pain value ([6]; 2 hr after administration): 29.0 ± 4.7 s; Heat pain value ([6]; 6 hr after administration): 13.5 ± 1.2 s; Heat pain value ([6]; 24 hr after administration): 13.8 ± 1.5 s
15 | CN1CC[C@]23c4c5ccc(O)c4O[C@H]2[C@@H](OCCOCCOCCOCCOCCOCCOCCO[C@H]2C=C[C@H]4[C@H]6Cc7ccc(O)c8c7[C@@]4(CCN6C)[C@H]2O8)C=C[C@H]3[C@H]1C5 [α-6-O-PEG7-(morphine)2] | 1170 ng/mL | 117 ng/mL | 71 ng/mL | 177 ng/g | 111 ng/g | 105 ng/g |  |  |  |  |  |  |  |  |  |  |  |  |  | 
16 | CN1CC[C@]23c4c5ccc(O)c4O[C@H]2[C@@H](OCCO[C@H]2C=C[C@H]4[C@H]6Cc7ccc(O)c8c7[C@@]4(CCN6C)[C@H]2O8)C=C[C@H]3[C@H]1C5 [α-6-O-PEG1-(morphine)2] | 891 ng/mL | 138 ng/mL | 38 ng/mL | 687 ng/g | 299 ng/g | 183 ng/g | 98 ng·h/mL | 83 ng·h/mL | 342 mL/min/k g | 2.46 h | 2.59 h | 47.3 L/kg | 72 L/kg | 3.7% | 92 ng·h/mL | 78 ng·h/mL | 56 | 11 h | 1.0 h | 
